For 139 substances, amyloid nucleation score results are on record in the supplement of paper PMC12042874.

± gives the uncertainty stated by the source.

A short description of the data set: amyloid nucleation score (Sup35N fusion, yeast selection) (log enrichment); library NNK2; higher = more nucleation; inactive = no reads after selection. The method, boiled down:
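Random libraries were run with three technical output replicates. In each, psi-negative yeast expressing Sup35N fused to peptides of 20 random codons were induced 24 hours with 100 μM copper sulfate and grown 7 days at 30°C on medium lacking adenine and uracil, and input and output plasmid inserts were Illumina-sequenced. The nucleation score is the DiMSum log enrichment of output over input reads, centred on the mode score of non-aggregating sequences, and sequences under 100 input reads were excluded.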
Substance LWYGWCKRLYFVRCHYRVSM yielded an amyloid nucleation score of -0.543 ± 0.55. As for LYAVRPLTVGTKCYMMRGLL, the figure is -1.59 ± 0.49. Substance LYCQFSYVRCKPGKRSDLGW yielded an amyloid nucleation score of 1.88 ± 0.23.

LYDFCVSYVSQNGLRLFVRT gave an amyloid nucleation score of -0.727 ± 0.45. As for LYDIDWRFRHKDAHQCKVDR, the figure is -0.184 ± 1.1. Regarding LYGGCRKWFTRTCFSFHMYR, the amyloid nucleation score was 0.562 ± 0.81. Substance LYHETAENSSRTQTTRRWSF registered an amyloid nucleation score of -0.321 ± 1.

LYIET came in with an amyloid nucleation score of -1.28 ± 0.63. LYIIMMICIQSLFRYRGIKG: the amyloid nucleation score was -0.975 ± 0.78.

As to LYLMSHTGFLSNTHIRLAPR, the amyloid nucleation score is -0.291 ± 1.1. Regarding LYLTRMFTTNAL, the amyloid nucleation score was found to be 0.806 ± 0.58. In the case of LYLYPAMFVSWLSGLPTRFC, the amyloid nucleation score was -0.406 ± 1.1. As for LYMILNGYTLGSCFTVRDSF, the figure is 4.99 ± 0.078; as for LYNEMVRSLVGAICRSRQGY, -0.297 ± 1.1; as for LYPWRMTCYK, -1.34 ± 0.76. Turning to LYQSYHELSFVTVHRSSKVD, the amyloid nucleation score was determined as 2.45 ± 0.15. Take LYRLSFSLFWERNRVHSFIR: the amyloid nucleation score was -0.232 ± 1.1. In the case of LYRRFRQRCIRERERLVHGL it was 0.01 ± 0.38.

Regarding LYRVILLSSRHNGSNIWAEF, the amyloid nucleation score worked out at 0.127 ± 0.74. Take LYRYSSG: the amyloid nucleation score entry was “inactive”. On to LYSWAFSS, for which the amyloid nucleation score result is “inactive”. With LYVFPCHILDDRCFLCGGWF, the amyloid nucleation score was -0.353 ± 0.38. Substance MAAVSETHPGAEGSNRVVSE yielded an amyloid nucleation score of 3.06 ± 0.07.

As to MAVLEMRDRWCDLLLTTSRV, the amyloid nucleation score was determined as 0.155 ± 0.21. In turn, MCFAHVRNFSEW displayed an amyloid nucleation score of 1.47 ± 0.15.

Substance MCFFMAREEASRGAKGLAER registered an amyloid nucleation score of 1.66 ± 0.19.

As for MCGSDNYILGLFWVYFMTNF, the amyloid nucleation score result is “inactive”.

As to MCRYCLVWYGFLNYSTLTRG, the amyloid nucleation score was -1.37 ± 0.62. MCVGNYVLRFLALPPSGCNM registered an amyloid nucleation score of -0.806 ± 0.36. In the case of MCWIVTFTRLCWLMFNSERC, the amyloid nucleation score entry was “inactive”. Take MDFSSLWGLHFVLCCVSWGR: the amyloid nucleation score amounted to 0.256 ± 1.

METAPTLNINVSDSQRPNVW gave an amyloid nucleation score of 0.71 ± 0.53. As for MEVADC, the figure is 0.591 ± 0.35.

On to MFIGLLVLRLLFAYQNDKSY, for which the amyloid nucleation score was found to be 0.153 ± 0.79. Substance MFSNFLIRKEGRKKVAMVKK registered an amyloid nucleation score of -1.04 ± 0.33.

As to MFSSMSVLCKYILASWASHK, the amyloid nucleation score was -0.58 ± 0.63. With MFTKDISGFLGVLGHVVVLG, the amyloid nucleation score was -0.237 ± 0.63. Consider MFVRRKSVSMVEYWE, for which the amyloid nucleation score was 0.054 ± 0.32. As for MFYPRSSFSWDFPTFGLSLP, the entry is “inactive”; as for MGGNLCVPRTLYSAIWLLSR, -1.23 ± 0.44; as for MGLSAVQVFSRRCSFSGKWC, “inactive”.

Regarding MGQLDGKACSICRSLVIIVY, the amyloid nucleation score was found to be 2.23 ± 0.073. As for MGTPLNFGCQY, the figure is -1.26 ± 0.48; as for MGYRFSGDLMEGRSTEWWRA, 0.836 ± 0.47; as for MHEAH, 0.439 ± 0.46.

With MHMYMRSGFLLLFVSWVREC, the amyloid nucleation score was -0.958 ± 0.76. In the case of MHPVANSGNSEHMFSMLY it was 3.48 ± 0.09; in that of MHSLISELLLPNTIFGSAGI, -0.707 ± 0.76; in that of MIFCCTRK, 8.708 ± 0.078. MIISTVMSGMNANSLVVWAY came in with an amyloid nucleation score of 0.375 ± 0.21. In the case of MIKHGYQWPCSLCT, the amyloid nucleation score came out at 0.219 ± 0.46. MIMEQSNNISNCLFVMQGPK yielded an amyloid nucleation score of 7.143 ± 0.07. Take MIMLDAEGLYIIPRGVSKFL: the amyloid nucleation score worked out at 1.87 ± 0.11. As for MINLQYLVGNLAVGL, the figure is 1.37 ± 0.14; as for MIRTHLRRIYNS, -1.26 ± 0.37. MIVNYFWIRCAPLFWQAIPS had an amyloid nucleation score of 3.63 ± 0.15.

Substance MIWNCTVFFLGDGAPLCGLC displayed an amyloid nucleation score of 8.5 ± 0.064. MKGEMF gave an amyloid nucleation score of -0.345 ± 0.28.

As for MKNTVE, the amyloid nucleation score is -0.803 ± 1.

The substance MKPAWYIVNEWLSGTRLECM displayed an amyloid nucleation score of -0.035 ± 0.49.

On to MKVPVRIRWVPLFSDFTYQV, for which the amyloid nucleation score is -0.736 ± 0.36. As for MKYLIVCDFCGLYSPCGFCF, the figure is 7.808 ± 0.037. MLCCLCMMVCDR returned an amyloid nucleation score of 8.673 ± 0.032.

The substance MLCRNIHRCKMHREPLGVFH gave an amyloid nucleation score of 0.578 ± 0.81. Turning to MLDYFGLWSWARSSNYLEFK, the amyloid nucleation score is -1.09 ± 0.31. For MLLSCYFVVNE, the amyloid nucleation score was 6.37 ± 0.072. MLMRNFSNSNLLAENFMQMR returned an amyloid nucleation score of 0.138 ± 1.1.

As for MLQYWMPVLGWWAFMRNLAF, the amyloid nucleation score came to 1.71 ± 0.47. On to MLRLFQYFLGTNFWGHQGFS, for which the amyloid nucleation score is -0.724 ± 1.1.

As for MLSENADTRCLRMFVSDCQR, the amyloid nucleation score worked out at 1.26 ± 0.16. For MLSLVMRVGFNCFIT, the amyloid nucleation score is 0.208 ± 1.1. Substance MLVEMYLFVNLCLYMRMSFR gave an amyloid nucleation score of 0.018 ± 0.5. On to MLVWTNMFSTLYDISWKAPL, for which the amyloid nucleation score is -1.02 ± 0.62. With MLWQFKWESGYVTLRARPN, the amyloid nucleation score result was “inactive”. In the case of MLYSSR it was -1.44 ± 0.44; in that of MMFTSQTGDLLFF, 4.89 ± 0.051. MMNTKFINWDKMLDIGYRAD gave an amyloid nucleation score of 0.877 ± 0.8. With MMVGFLCK, the amyloid nucleation score stood at 3.91 ± 0.07. In turn, MMVYKGMPVLPCEYRVLY displayed an amyloid nucleation score of -0.199 ± 0.36.

The substance MNDLMYVVLSRCSMIGNCGS yielded an amyloid nucleation score of 1.29 ± 0.17.

For MNLWVMAFR, the amyloid nucleation score is 6.502 ± 0.065. In the case of MNMSEMSAYHFLFSGGSKLR it was -0.21 ± 0.44. Substance MNPYLVGPFERVV gave an amyloid nucleation score of 0.061 ± 0.33.

Regarding MPGYYPMGSL, the amyloid nucleation score is 0.427 ± 0.74. In the case of MPQWKL it was -0.205 ± 0.74. On to MPYTCMGVFVAHMEATE, for which the amyloid nucleation score is 0.316 ± 0.4. Regarding MQRTIYFS, the amyloid nucleation score was 0.767 ± 0.58. In the case of MRFSCWADIVRGDLIPHFVV, the amyloid nucleation score was determined as 2.84 ± 0.09.

On to MRHMYRPPIVSLHRVAIGFM, for which the amyloid nucleation score was -0.906 ± 0.63.

With MRRRMQSWANRSLSTGWGMF, the amyloid nucleation score is -0.091 ± 0.38.

In turn, MRRSLFMCILVYDSWLYFSV had an amyloid nucleation score of 3.15 ± 0.17. As for MRSFGPIFSVLL, the figure is -0.067 ± 0.34; as for MRSRNLLS, “inactive”; as for MRSTALYDILRRPWFNFSAY, -0.014 ± 0.76. In the case of MRWSYFDH it was 0.921 ± 0.47; in that of MSFKDNYQPK, -0.707 ± 0.76; in that of MSILESIRTRTRRVKGYLSC, 0.315 ± 0.36.

Consider MSILTCVPGTNIINSQW, for which the amyloid nucleation score entry was “inactive”. MSLILRSPLKTWLPLAHTQG gave an amyloid nucleation score of 0.187 ± 0.42. As for MSLLV, the figure is 5.695 ± 0.029; as for MSLWRVCCFSWPKKVYSNFR, 1.2 ± 0.1; as for MSPWRDRSRFKIYDGPTWRM, 0.728 ± 0.8. In the case of MSPYL, the amyloid nucleation score came to 0.479 ± 0.8.

As to MSSINTRPRNDA, the amyloid nucleation score is -0.645 ± 0.37. Consider MSSQKWADKVPWEFVCGCFD, for which the amyloid nucleation score was found to be 0.01 ± 0.65. MSVLSMVFSGFDPMERFGEL: the amyloid nucleation score stood at 0.294 ± 0.8.

The substance MSYGNAYNTPKCDKHSVIPY showed an amyloid nucleation score of 0.738 ± 0.37.

As to MTCSSHCGMCIPSIPQVFGA, the amyloid nucleation score was determined as 1.02 ± 0.4. Consider MTDLLTMVAYRLKGSRVSSM, for which the amyloid nucleation score stood at 0.08 ± 0.37. MTFENFSSSHSWTDLLFLFI yielded an amyloid nucleation score of 3.43 ± 0.078.

With MTGNVYKMIILIYNFFRRS, the amyloid nucleation score was found to be 2.7 ± 0.069.

With MTQPEGY, the amyloid nucleation score was 0.325 ± 0.56. The substance MTRVTYMYVFIYACESRYTH returned an amyloid nucleation score of -0.116 ± 0.22.

Substance MTSRVETSKCNCSLQVWRPL returned an amyloid nucleation score of 0.579 ± 0.37. In turn, MVFAPIVYEIKRDIKMLFGA displayed an amyloid nucleation score of 5.947 ± 0.029. MVFRNNYSEVTTRLAGNGRR showed an amyloid nucleation score of -0.074 ± 1.1. Substance MVINSAWVCENGLSQYFLAK came in with an amyloid nucleation score of 4.27 ± 0.075.

Regarding MVINSFPPGWVRGHMIKSTG, the amyloid nucleation score was -0.39 ± 0.76.

Substance MVIQHIDRPDYWISWGHNKG yielded an amyloid nucleation score of 5.112 ± 0.048. For the substance MVKLFSLSTS, the amyloid nucleation score is -0.533 ± 0.2. As for MVLIYRLCQSLRLRHGVGVK, the figure is 4.33 ± 0.1; as for MVLLCIFQ, 8.273 ± 0.064.

For the substance MVLLLQASSI, the amyloid nucleation score was -0.354 ± 0.54. MVPKNFYFRRWLSWLRVRLL: the amyloid nucleation score was determined as 0.144 ± 0.52. For the substance MVVGIAVYRCSFNRTDLFPS, the amyloid nucleation score turned out to be 0.655 ± 0.2. In turn, MVVLCHINLYEYGSFNPSST came in with an amyloid nucleation score of 6.31 ± 0.077. The substance MVWAQSTASMVLDLVFIAPS yielded an amyloid nucleation score of 1.75 ± 0.29. MVYPRYVSDTKQSRLLAGRE registered an amyloid nucleation score of 0.604 ± 0.57. Regarding MWVPFASWLCK, the amyloid nucleation score is -0.08 ± 0.5. Turning to MYLVYHYLSVRAFLFMSTMV, the amyloid nucleation score was -0.39 ± 0.61.

Substance MYRRSSWHLWWSKELFDAIY came in with an amyloid nucleation score of -0.723 ± 0.79. MYSVMLRTSYCTLARYMVLW: the amyloid nucleation score came out at 1.08 ± 0.11.

The substance NACYIDFGRTAVSTVLAILY registered an amyloid nucleation score of 3.41 ± 0.09.

Substance NADQLLIGELQLTLGLWPIR gave an amyloid nucleation score of 1.14 ± 0.16. Regarding NAQSRVLAEETGLSNPPIML, the amyloid nucleation score is -1.45 ± 0.62. As for NARVTGVF, the entry is “inactive”. In turn, NCFRVFNSFSIFGAFRTMDR returned an amyloid nucleation score of 5.22 ± 0.064. As for NCFSSRGGARTFGIKLIFSV, the figure is 0.524 ± 0.51; as for NCFYALYPSQDWRMTKLELS, -0.106 ± 0.23.
